Results on four molecules are retold here after US20040086933A1 (Chugai, published 2004).

Assay [1] addresses temperature-sensitive p53 (pMSVp53Val135) (UniProt P02340). Nature of the assay: cell-based or functional assay.
The target in the next assay is T1, GST (UniProt P08515 1-218 = GST).
T1 construct: also called glutathione S-transferase
Nature of the assay: GST pull-down with glutathione-Sepharose, anti-His Western blot (FIG. 9, Lanes 4 to 6). The protocol: Different striamins conjugated to histidines were reacted with p53 conjugated to GST in vitro, and the reaction was immunoprecipitated with glutathione Sepharose beads, followed by Western blot analysis using anti-histidine-tag and anti-p53 antibodies (“GST-p53 pull” in the figure).
Each protein purified in step (1) (2 to 5 μg) was mixed with GST or GST-p53 (1 μg, Santa Cruz) in NP40-lysis buffer (500 μl). After two hours, glutathione-Sepharose beads (20 μl) were added to the suspension and rotated for mixing for one hour at 4° C. The beads were precipitated by centrifugation, washed three times with TBS and then boiled in SDS-sample buffer. Subsequently, SDS-PAGE was carried out for each sample, followed by detection of the respective striamins conjugated to the histidines by Western blotting using an anti-histidine-tag antibody. In addition, p53 was detected by Western blotting using anti-p53 antibody.
On the technique in general: In western blotting, separated proteins are transferred to a membrane and probed.

T1 sequence (P08515 whole entry): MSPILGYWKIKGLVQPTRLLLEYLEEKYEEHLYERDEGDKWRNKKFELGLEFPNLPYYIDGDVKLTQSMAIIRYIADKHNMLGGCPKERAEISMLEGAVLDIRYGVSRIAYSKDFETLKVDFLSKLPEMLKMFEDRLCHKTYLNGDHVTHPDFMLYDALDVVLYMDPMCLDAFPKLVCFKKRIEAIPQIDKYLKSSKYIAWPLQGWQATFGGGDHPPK

In assay [1], striamin (full-length, untagged) came in with a p53 activity (p53-responsive luciferase reporter PG-13luc in p53-/- MEF cells) of 4.6 fold and a β-gal positive cells (p53-responsive β-gal reporter pRGC fos-lacZ in microinjected p53-/- MEF cells) of 5%.

B1: full-length striamin with a histidine tag (pQE30/full-length striamin) (other)
chain: MKGLAGEWHQDSGLDIREKAEDFSLPWLLPRLMALVMQEEGRFRSDRNHGYLREWLRIQALTACLPSPLGRVHYAQCSPKQKGRLPRGWASLPSLSVLVRALRASNAFSLGNYYCCPWRGTRWAKGQPGEWARPRASSPSAHREGVAVT
notes: also called pQE30/striamin; His-tagged striamin; not shown: N-terminal His tag encoded by the pQE30 vector (Qiagen)
With B1, the binding result with GST is listed as “no binding”.

B2: C-striamin with a histidine tag (pQE30/C-striamin) (other)
chain: QCSPKQKGRLPRGWASLPSLSVLVRALRASNAFSLGNYYCCPWRGTRWAKGQPGEWARPRASSPSAHREGVAVT
notes: not shown: N-terminal His tag encoded by the pQE30 vector (Qiagen)
For the molecule B2, in the assay with GST, the binding result was “no binding”.

B3: N-striamin with a histidine tag (pQE30/N-striamin) (other)
chain: MKGLAGEWHQDSGLDIREKAEDFSLPWLLPRLMALVMQEEGRFRSDRNHGYLREWLRIQALTACLPSPLGRVHYA
notes: as for B2
Consider B3, for which, in the assay with GST, the binding result is “no binding”.
